Results as given in US20110300138A1 (published 2011).

How the values were obtained:
Assay in all cases: cell-based or functional assay
[1] = molecular target: TSHR with Lys129 mutated to Ala, expressed in CHO cells (human) (UniProt P16473)
[2] = molecular target: TSHR with Asp43 mutated to Ala, expressed in CHO cells (human) (UniProt P16473)
[3] = molecular target: TSHR with Thr104 mutated to Ala (expressed in CHO cells) (human) (UniProt P16473)
[4] = molecular target: wild type human TSHR (full length) expressed in CHO cells (human) (UniProt P16473)

TSH (ligand)
Cyclic AMP produced; TSH (2) [1]: 47.9 pmol/mL | Mutated/wild type (%) of cyclic AMP produced; TSH 3 ng/mL [1]: 98% | Mutated/wild type (%) of cyclic AMP produced; TSH (2) [1]: 90% | % inhibition of TSH stimulation, TSH (2) run at the end of assay, mutated TSHR [2]: 0% | Cyclic AMP produced (pmol/mL), TSH (2) 3 ng/mL run at the end of assay, mutated TSHR [2]: 60.3 pmol/mL | Mutated/Wild type (%) of cyclic AMP produced, TSH 0.01 ng/mL [2]: 100% | Mutated/Wild type (%) of cyclic AMP produced, TSH 0.03 ng/mL [2]: 113% | Mutated/Wild type (%) of cyclic AMP produced, TSH 0.1 ng/mL [2]: 119% | Mutated/Wild type (%) of cyclic AMP produced, TSH 0.3 ng/mL [2]: 86% | Mutated/Wild type (%) of cyclic AMP produced, TSH 1 ng/mL [2]: 86% | Mutated/wild type (%) of cyclic AMP produced; TSH 3 ng/mL [2]: 88% | Mutated/wild type (%), TSH (2) 3 ng/mL run at the end of assay [2]: 65% | % inhibition of TSH stimulation; TSH (2), run at the end of assay [3]: 10% | Cyclic AMP produced (pmol/mL), TSH 0.01 ng/mL, Experiment 1 [3]: 2.58 pmol/mL | Cyclic AMP produced (pmol/mL), TSH 0.01 ng/mL, Experiment 2 [3]: 4.28 pmol/mL | Cyclic AMP produced (pmol/mL), TSH 0.03 ng/mL, Experiment 1 [3]: 3.2 pmol/mL | Cyclic AMP produced (pmol/mL), TSH 0.03 ng/mL, Experiment 2 [3]: 5.71 pmol/mL | Cyclic AMP produced (pmol/mL), TSH 0.1 ng/mL, Experiment 1 [3]: 3.64 pmol/mL | Cyclic AMP produced (pmol/mL), TSH 0.1 ng/mL, Experiment 2 [3]: 9.8 pmol/mL | Cyclic AMP produced (pmol/mL), TSH 0.3 ng/mL, Experiment 1 [3]: 5.38 pmol/mL | Cyclic AMP produced (pmol/mL), TSH 0.3 ng/mL, Experiment 2 [3]: 35.7 pmol/mL | Cyclic AMP produced (pmol/mL), TSH 1 ng/mL, Experiment 1 [3]: 15.8 pmol/mL | Cyclic AMP produced (pmol/mL), TSH 1 ng/mL, Experiment 2 [3]: 57.1 pmol/mL | Cyclic AMP produced (pmol/mL), TSH 3 ng/mL, Experiment 1 [3]: 34.5 pmol/mL | Cyclic AMP produced (pmol/mL), TSH 3 ng/mL, Experiment 2 [3]: 58.5 pmol/mL | Cyclic AMP produced; TSH 3 ng/mL alone [3]: 63.7 pmol/mL | Cyclic AMP produced; TSH (2) 3 ng/mL, run at the end of assay [3]: 57 pmol/mL | Mutated/Wild type (%), TSH 0.01 ng/mL, Experiment 1 [3]: 188% | Mutated/Wild type (%), TSH 0.01 ng/mL, Experiment 2 [3]: 204% | Mutated/Wild type (%), TSH 0.03 ng/mL, Experiment 1 [3]: 203% | Mutated/Wild type (%), TSH 0.03 ng/mL, Experiment 2 [3]: 127% | Mutated/Wild type (%), TSH 0.1 ng/mL, Experiment 1 [3]: 199% | Mutated/Wild type (%), TSH 0.1 ng/mL, Experiment 2 [3]: 95% | Mutated/Wild type (%), TSH 0.3 ng/mL, Experiment 1 [3]: 168% | Mutated/Wild type (%), TSH 0.3 ng/mL, Experiment 2 [3]: 100% | Mutated/Wild type (%), TSH 1 ng/mL, Experiment 1 [3]: 99% | Mutated/Wild type (%), TSH 1 ng/mL, Experiment 2 [3]: 79% | Mutated/Wild type (%), TSH 3 ng/mL, Experiment 1 [3]: 72% | Mutated/Wild type (%), TSH 3 ng/mL, Experiment 2 [3]: 74% | Mutated/wild type (%) of cyclic AMP produced; TSH 3 ng/mL alone [3]: 76% | Mutated/wild type (%) of cyclic AMP produced; TSH (2) 3 ng/mL, run at the end of assay [3]: 68% | % inhibition of TSH stimulation, TSH (2) run at the end of assay, wild type TSHR [4]: 2% | Cyclic AMP produced (pmol/mL), TSH 0.01 ng/mL, wild type TSHR [4]: 2.03 pmol/mL | Cyclic AMP produced (pmol/mL), TSH 0.03 ng/mL, wild type TSHR [4]: 3.65 pmol/mL | Cyclic AMP produced (pmol/mL), TSH 0.1 ng/mL, wild type TSHR [4]: 9.65 pmol/mL | Cyclic AMP produced (pmol/mL), TSH 0.3 ng/mL, wild type TSHR [4]: 31.4 pmol/mL | Cyclic AMP produced (pmol/mL), TSH 1 ng/mL, wild type TSHR [4]: 61 pmol/mL | Cyclic AMP produced (pmol/mL), TSH 3 ng/mL alone, wild type TSHR [4]: 93.9 pmol/mL | Cyclic AMP produced (pmol/mL), TSH 3 ng/mL, wild type TSHR [4]: 82.6 pmol/mL | Cyclic AMP produced (pmol/mL), TSH (2) 3 ng/mL run at the end of assay, wild type TSHR [4]: 92.2 pmol/mL | Cyclic AMP produced, TSH 0.01 ng/mL [4]: 4 pmol/mL | Cyclic AMP produced, TSH 0.01 ng/mL, Experiment 1 [4]: 1.09 pmol/mL | Cyclic AMP produced, TSH 0.01 ng/mL, Experiment 2 [4]: 1.93 pmol/mL | Cyclic AMP produced, TSH 0.03 ng/mL [4]: 6.66 pmol/mL | Cyclic AMP produced, TSH 0.03 ng/mL, Experiment 1 [4]: 2.31 pmol/mL | Cyclic AMP produced, TSH 0.03 ng/mL, Experiment 2 [4]: 2.75 pmol/mL | Cyclic AMP produced, TSH 0.1 ng/mL [4]: 19.7 pmol/mL | Cyclic AMP produced, TSH 0.1 ng/mL, Experiment 1 [4]: 6.54 pmol/mL | Cyclic AMP produced, TSH 0.1 ng/mL, Experiment 2 [4]: 7.25 pmol/mL | Cyclic AMP produced, TSH 0.3 ng/mL [4]: 45 pmol/mL | Cyclic AMP produced, TSH 0.3 ng/mL, Experiment 1 [4]: 26.5 pmol/mL | Cyclic AMP produced, TSH 0.3 ng/mL, Experiment 2 [4]: 25.3 pmol/mL | Cyclic AMP produced, TSH 1 ng/mL [4]: 75.7 pmol/mL | Cyclic AMP produced, TSH 1 ng/mL, Experiment 1 [4]: 67.7 pmol/mL | Cyclic AMP produced, TSH 1 ng/mL, Experiment 2 [4]: 51 pmol/mL | Cyclic AMP produced, TSH 3 ng/mL, Experiment 1 (mean of duplicate) [4]: 83.5 pmol/mL | Cyclic AMP produced; TSH 3 ng/mL [4]: 87.2 pmol/mL | Cyclic AMP produced; TSH 3 ng/mL; Experiment 2 [4]: 69.7 pmol/mL
